In PMC4157633 (Laboratory investigation; a journal of technical methods …, 2014):

B1: human carcinoembryonic antigen (hCEA) protein, purified (natural protein, UniProt P06731 35-685, looked up)
chain: KLTIESTPFNVAEGKEVLLLVHNLPQHLFGYSWYKGERVDGNRQIIGYVIGTQQATPGPAYSGREIIYPNASLLIQNIIQNDTGFYTLHVIKSDLVNEEATGQFRVYPELPKPSISSNNSKPVEDKDAVAFTCEPETQDATYLWWVNNQSLPVSPRLQLSNGNRTLTLFNVTRNDTASYKCETQNPVSARRSDSVILNVLYGPDAPTISPLNTSYRSGENLNLSCHAASNPPAQYSWFVNGTFQQSTQELFIPNITVNNSGSYTCQAHNSDTGLNRTTVTTITVYAEPPKPFITSNNSNPVEDEDAVALTCEPEIQNTTYLWWVNNQSLPVSPRLQLSNDNRTLTLLSVTRNDVGPYECGIQNELSVDHSDPVILNVLYGPDDPTISPSYTYYRPGVNLSLSCHAASNPPAQYSWLIDGNIQQHTQELFISNITEKNSGLYTCQANNSASGHSRTTVKTITVSAELPKPSISSNNSKPVEDKDAVAFTCEPEAQNTTYLWWVNGQSLPVSPRLQLSNGNRTLTLFNVTRNDARAYVCGIQNSVSANRSDPVTLDVLYGPDTPIISPPDSSYLSGANLNLSCHSASNPSPQYSWRINGIPQQHTQVLFIAKITPNNNGTYACFVSNLATGRNNSIVKSITVSASGTSPGLSA

Legend:
[1] = target: B1; assay: ELISA
[2] = target: anti-EGFR VHH122-fiber-fibritin chimera displayed on the AdVHH122Luc vector (human adenovirus serotype 5 | …); assay: ELISA

Binder	EC50 [1]	binding result [2]
anti-hCEA VHH JJB-B2, thioredoxin fusion protein (VHH) VHH: QVQLVETGGGLVQPGGSLRLSCAASESIFSTYAMGWYRQAPGKQRELVAAITTNDIANYADSVKGRFTISRDNAKNTVYLQMNSLNPEDTAVYYCNAIFPPYNYWGQGTQVTVSS	~0.2 nM	
anti-hCEA VHH JJB-D1, thioredoxin fusion protein (VHH) VHH: QVQLVESGGLVQAGGSLRPSCAASGSIFLQNAMGWYRQVPGKQRELVAAITSVDSTNYADSVKGRFTISRDNAKNTVYLQMNSLKPEDTAVYYCNAPWNSDYHWGKGTLVTVSS	~1 nM	
anti-hCEA VHH JJB-A3, thioredoxin fusion protein (VHH) VHH: QVQLVETGGGLVQPGGSLRLSCAASGRISDINAMGWYRQAPGKQRELVAAITSVGSNYVDSVKGRFTISKDNAKNTVYLQMYSLNPEDTAVYYCNTQCGTWLVCDGRDQWGKGTLVTVSS	~0.15 nM	
B1		no binding
anti-hCEA VHH JJB-B5, thioredoxin fusion protein (VHH) VHH: QVQLVETGGGLVQPGGSLRPSCTASGSIFSIYAMGWYRQASGKQRELVALITRDEVFNYADSVKGRFTISRDNAKDTVYLQMNSLKPEDTAVYYCWVETVNDHYNSGVEDYWGQGTQVTVSS	~50 nM	
